Source: US11377503
Where a chain is given by its changes, count along the chain named.

Legend:
CD39 mutant 19 = target: T1, CD39 mutant 19 (human, UniProt P49961); test: FACS
T1 chain: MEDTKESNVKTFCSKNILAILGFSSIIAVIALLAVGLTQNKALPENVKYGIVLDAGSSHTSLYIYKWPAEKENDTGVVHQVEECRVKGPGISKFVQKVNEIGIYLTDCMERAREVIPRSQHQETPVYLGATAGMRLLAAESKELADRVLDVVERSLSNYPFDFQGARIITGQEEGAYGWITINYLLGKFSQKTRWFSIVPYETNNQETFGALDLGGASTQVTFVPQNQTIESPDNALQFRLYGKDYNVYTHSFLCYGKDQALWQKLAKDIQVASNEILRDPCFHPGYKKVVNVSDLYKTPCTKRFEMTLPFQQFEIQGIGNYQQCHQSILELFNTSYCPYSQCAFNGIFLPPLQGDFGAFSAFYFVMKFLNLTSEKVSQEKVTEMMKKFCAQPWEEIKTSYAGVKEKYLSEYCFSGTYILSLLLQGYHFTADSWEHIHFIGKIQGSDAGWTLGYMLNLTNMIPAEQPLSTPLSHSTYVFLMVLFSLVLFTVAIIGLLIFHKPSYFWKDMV

murine CD39 (CHO-moCD39) = target: T2, murine CD39 (CHO-moCD39) (mouse, UniProt P55772); test: FACS
T2 chain: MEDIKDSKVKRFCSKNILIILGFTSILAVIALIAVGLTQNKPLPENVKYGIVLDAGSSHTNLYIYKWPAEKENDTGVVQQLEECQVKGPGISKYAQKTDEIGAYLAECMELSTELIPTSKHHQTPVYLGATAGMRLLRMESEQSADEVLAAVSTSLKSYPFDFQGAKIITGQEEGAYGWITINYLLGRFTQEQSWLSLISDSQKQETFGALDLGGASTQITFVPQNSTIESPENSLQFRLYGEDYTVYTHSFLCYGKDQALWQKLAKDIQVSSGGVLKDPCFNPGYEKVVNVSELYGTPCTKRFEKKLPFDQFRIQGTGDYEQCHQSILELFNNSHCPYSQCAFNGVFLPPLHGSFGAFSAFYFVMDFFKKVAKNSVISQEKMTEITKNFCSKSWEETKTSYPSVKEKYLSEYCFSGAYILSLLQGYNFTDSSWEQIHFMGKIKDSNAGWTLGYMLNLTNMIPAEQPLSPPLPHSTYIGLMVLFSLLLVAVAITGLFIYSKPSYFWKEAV

CD39-L2 (ENTPD6) = target: T3, CD39-L2 (ENTPD6) (human, UniProt O75354); test: ELISA
T3 chain: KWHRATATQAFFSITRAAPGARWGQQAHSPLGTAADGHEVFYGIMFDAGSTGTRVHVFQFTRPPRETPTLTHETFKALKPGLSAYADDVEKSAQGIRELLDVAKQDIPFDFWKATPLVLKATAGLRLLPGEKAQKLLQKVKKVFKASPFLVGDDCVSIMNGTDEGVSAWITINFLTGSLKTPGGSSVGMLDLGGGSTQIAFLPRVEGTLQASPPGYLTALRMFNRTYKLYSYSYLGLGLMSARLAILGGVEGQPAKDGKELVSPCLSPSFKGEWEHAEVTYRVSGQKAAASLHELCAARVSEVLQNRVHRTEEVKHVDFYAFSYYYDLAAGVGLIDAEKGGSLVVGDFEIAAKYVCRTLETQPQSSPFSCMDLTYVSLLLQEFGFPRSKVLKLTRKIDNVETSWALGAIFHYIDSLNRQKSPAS

CD39-L1 (ENTPD2) = target: T4, CD39-L1 (ENTPD2) (human, UniProt Q9Y5L3); test: ELISA
T4 chain: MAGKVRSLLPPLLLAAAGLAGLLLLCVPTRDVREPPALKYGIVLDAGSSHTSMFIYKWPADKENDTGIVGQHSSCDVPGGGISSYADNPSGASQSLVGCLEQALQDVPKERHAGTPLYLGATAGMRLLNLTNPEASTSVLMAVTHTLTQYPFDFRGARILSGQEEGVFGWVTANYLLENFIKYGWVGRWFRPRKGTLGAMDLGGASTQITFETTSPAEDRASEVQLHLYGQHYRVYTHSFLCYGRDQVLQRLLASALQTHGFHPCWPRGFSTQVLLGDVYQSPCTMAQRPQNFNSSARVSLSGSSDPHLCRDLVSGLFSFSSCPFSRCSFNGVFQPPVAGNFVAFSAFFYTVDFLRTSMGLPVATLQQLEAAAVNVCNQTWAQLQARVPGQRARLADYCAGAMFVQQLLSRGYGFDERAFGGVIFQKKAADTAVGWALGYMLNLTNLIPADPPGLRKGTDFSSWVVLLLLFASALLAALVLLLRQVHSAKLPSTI

CD39-L4 (ENTPD5) = target: T5, CD39-L4 (ENTPD5) (human, UniProt O75356); test: ELISA
T5 chain: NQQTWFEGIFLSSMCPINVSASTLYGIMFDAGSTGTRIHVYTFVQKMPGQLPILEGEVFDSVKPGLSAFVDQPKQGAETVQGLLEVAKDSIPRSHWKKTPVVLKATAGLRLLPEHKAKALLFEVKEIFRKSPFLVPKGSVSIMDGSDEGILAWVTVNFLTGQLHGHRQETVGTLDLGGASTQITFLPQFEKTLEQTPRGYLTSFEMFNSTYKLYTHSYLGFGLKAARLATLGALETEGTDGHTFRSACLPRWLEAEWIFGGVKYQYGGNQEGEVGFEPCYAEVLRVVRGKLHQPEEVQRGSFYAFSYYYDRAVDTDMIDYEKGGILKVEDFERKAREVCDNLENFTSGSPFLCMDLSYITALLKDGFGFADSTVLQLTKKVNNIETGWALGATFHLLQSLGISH

CD39-L3 (ENTPD3) = target: T6, CD39-L3 (ENTPD3) (human, UniProt O75355); test: ELISA
T6 chain: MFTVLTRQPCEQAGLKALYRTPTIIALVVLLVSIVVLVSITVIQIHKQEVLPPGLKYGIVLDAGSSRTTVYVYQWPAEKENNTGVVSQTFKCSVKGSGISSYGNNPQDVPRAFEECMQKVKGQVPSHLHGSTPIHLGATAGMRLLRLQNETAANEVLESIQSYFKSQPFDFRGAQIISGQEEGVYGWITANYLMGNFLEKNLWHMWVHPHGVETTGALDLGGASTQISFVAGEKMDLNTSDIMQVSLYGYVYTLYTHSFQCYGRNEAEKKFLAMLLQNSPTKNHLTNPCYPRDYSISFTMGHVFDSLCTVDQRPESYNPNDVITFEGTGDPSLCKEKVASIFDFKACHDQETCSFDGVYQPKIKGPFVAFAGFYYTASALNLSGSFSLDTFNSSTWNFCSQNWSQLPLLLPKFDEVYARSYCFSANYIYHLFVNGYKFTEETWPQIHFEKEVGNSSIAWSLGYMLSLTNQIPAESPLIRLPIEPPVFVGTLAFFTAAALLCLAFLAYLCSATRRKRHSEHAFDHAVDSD

human CD39 (Ramos cells) [1] = target: T7, human CD39 (Ramos cells) (human, UniProt P49961); test: FACS, Ramos cells, first experiment
T7 chain: T1 chain with A138R, A139M, K142E

human CD39 (Ramos cells) [2] = target: T7, human CD39 (Ramos cells); test: FACS, Ramos cells, second experiment

B1: I-394 (antibody, V domains shown)
VH: EVKLQQSGPELVKPGASVKMSCKASGYTFTDYNMHWVKQSPGRTLEWIGYIVPLNGGSTFNQKFKGRATLTVNTSSRTAYMELRSLTSEDSAAYYCARGGTRFAYWGQGTLVTVSA
VL: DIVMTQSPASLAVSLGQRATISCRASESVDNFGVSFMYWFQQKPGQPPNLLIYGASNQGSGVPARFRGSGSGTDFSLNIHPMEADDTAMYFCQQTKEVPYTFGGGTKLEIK
B1: no binding (CD39 mutant 19); no binding (murine CD39 (CHO-moCD39)); no binding (CD39-L2 (ENTPD6)). B1: no binding (CD39-L1 (ENTPD2)); no binding (CD39-L4 (ENTPD5)); no binding (CD39-L3 (ENTPD3)). It also gave an EC50 (human CD39 (Ramos cells) [1]) of 0.16 µg/mL and an EC50 (human CD39 (Ramos cells) [2]) of 0.19 µg/mL.
